PMC10359602, “High fidelity DNA strand-separation is the major specificity determinant in DNA methyltransferase CcrM’s catalytic mechanism”

Tests used:
CcrM WT [1] = biological target: T1, CcrM WT (Caulobacter crescentus, UniProt P0CAW2 1-358); test: equilibrium Trp fluorescence; 60 uM sinefungin; smaller change than dsDNA; Anisotropy: 10 nM FAM-DNA, 0-1000 nM protein, 30 uM SAH, 100 mM HEPES, 1 mM EDTA, 20 mM NaCl, pH 8, room temperature, 20 min; Trp fluorescence: same buffer plus 2 mM DTT, 500 nM protein, 60 uM sinefungin, 5 uM DNA; details: protein: recombinant; chain copies: 2; single strand
T1 sequence (P0CAW2 whole entry): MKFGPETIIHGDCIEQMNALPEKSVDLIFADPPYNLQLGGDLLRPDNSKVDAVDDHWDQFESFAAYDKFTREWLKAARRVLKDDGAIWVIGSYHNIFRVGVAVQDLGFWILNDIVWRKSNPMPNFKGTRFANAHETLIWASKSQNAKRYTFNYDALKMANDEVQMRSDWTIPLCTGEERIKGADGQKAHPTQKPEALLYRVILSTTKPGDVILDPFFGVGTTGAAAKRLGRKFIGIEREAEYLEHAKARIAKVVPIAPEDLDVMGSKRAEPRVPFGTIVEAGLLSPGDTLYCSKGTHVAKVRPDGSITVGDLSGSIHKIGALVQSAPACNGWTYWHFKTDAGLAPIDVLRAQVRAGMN

CcrM WT [2] = biological target: T1, CcrM WT; test: fluorescence anisotropy; 30 uM SAH; Hill h = 2.1; apparent Kd; Anisotropy: 10 nM FAM-DNA, 0-1000 nM protein, 30 uM SAH, 100 mM HEPES, 1 mM EDTA, 20 mM NaCl, pH 8, room temperature, 20 min; Trp fluorescence: same buffer plus 2 mM DTT, 500 nM protein, 60 uM sinefungin, 5 uM DNA; details: protein: recombinant; chain copies: 2; label: 5' 6-FAM on strand 1; blunt
CcrM R350A = CcrM R350A (Caulobacter crescentus, UniProt P0CAW2 1-358, R350A); test: fluorescence anisotropy; 30 uM SAH; Hill h = 1.3; apparent Kd, above tested range 0-1000 nM; Anisotropy: 10 nM FAM-DNA, 0-1000 nM protein, 30 uM SAH, 100 mM HEPES, 1 mM EDTA, 20 mM NaCl, pH 8, room temperature, 20 min; Trp fluorescence: same buffer plus 2 mM DTT, 500 nM protein, 60 uM sinefungin, 5 uM DNA; details: protein: recombinant; chain copies: 2; label: 5' 6-FAM on strand 1; blunt
Sequence of CcrM R350A (P0CAW2 whole entry R350A): as the sequence (P0CAW2 whole entry) above, with R350A counted along it

CcrM WT [3] = biological target: T1, CcrM WT; test: fluorescence anisotropy; 30 uM SAH; Hill h = 2.5; apparent Kd; Anisotropy: 10 nM FAM-DNA, 0-1000 nM protein, 30 uM SAH, 100 mM HEPES, 1 mM EDTA, 20 mM NaCl, pH 8, room temperature, 20 min; Trp fluorescence: same buffer plus 2 mM DTT, 500 nM protein, 60 uM sinefungin, 5 uM DNA; details: protein: recombinant; chain copies: 2; label: 5' 6-FAM on strand 1; blunt

B1: cognate ssDNA (ssDNA)
DNA: TCACTGTACTCTGACTCGCCTGACATGAC
CcrM WT [1]
  binding result: binds

B2: NC-FAM (dsDNA)
DNA 1: TCACTGTACTCTGACTGGCCTGACATGAC
DNA 2: GTCATGTCAGGCCAGTCAGAGTACAGTGA
modifications: N6-methyl-A at position 14 (5' to 3') of strand 2
CcrM WT [2]
  Kd: 135 ± 7.6 nM

B3: C1-FAM (dsDNA)
DNA 1: TCACTGTACTCTGACTCGCCTGACATGAC
DNA 2: GTCATGTCAGGCGAGTCAGAGTACAGTGA
modifications: N6-methyl-A at position 14 (5' to 3') of strand 2 (hemimethylated)
CcrM R350A
  Kd: 2110 ± 193 nM
CcrM WT [3]
  Kd: 150 ± 5.4 nM
